This data set can be described thus: self-splicing fitness, log relative to wild type (ln ratio); higher = more splicing; Tetrahymena group I intron in knt gene, E. coli kanamycin selection, DiMSum; sequences stand for … in CUCUCU…GGAGGGAAAAGUUAUCAGGCAUGCACCUGGUAGCUAGUCUUUAAACCAAUAGAUUGCAUCGGUUUAAAAGGCAAGACCGUCAAAUUGCGGGAAAGGGGUCAACAGCCGUUCAGUACCAAGUCUCAGGGGAAACUUUGAGAUGGCCUUGCAAAGGGUAUGGUAAUAAGCUGACGGACAUGGUCCUAACCACGCAGCCAAGUCCUAAGUCAACAGAUCUUCUGUUGAUAUGGAUGCAGUUCACAGACUAAAUGUCGGUCGGGGAAGAUGUAUUCUUCUCAUAAGAUAUAGUCGGACCUCUCCUUAAUGGGAGCUAGCGGAUGAAGUGAUGCAACACUGGAGCCGCUGGGAACUAAUUUGUAUGCGAAAGUAUAUUGAUUAGUUUUGGAGUACUCGUGGUCG
The essentials: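 Pooled colonies went to amplicon sequencing on an Illumina HiSeq 2500 after six replicate transformations. The plates were LB agar with 100 μg/mL carbenicillin, 50 μM IPTG and 0.2% rhamnose, with or without 25 μg/mL kanamycin, incubated overnight at 37°C or 30°C. The E. coli BL21(DE3) library had all eight P1ex-region intron nucleotides randomised, the intron placed in the knt kanamycin-resistance gene on pET-22b(+). DiMSum fitness is the error-weighted combination of replicate fold changes, kanamycin against none, normalised to wild type.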

± gives the uncertainty stated by the source.

For the sequence UCAAAGCAAUAUUACGACCG, the “self-splicing fitness (ln)” value (30 °C) was -0.525 ± 0.15 and the “self-splicing fitness (ln)” value (37 °C) came to 0.396 ± 0.21. Taken in the same sequence, the figures for CACCAGCAAUAUUACGUGCU were -3.4 ± 0.11 and -2.7 ± 0.15.

ACCCAGCAAUAUUACGGAAG: the “self-splicing fitness (ln)” value (30 °C) is -2.49 ± 0.091 and the “self-splicing fitness (ln)” value (37 °C) was -1.02 ± 0.1. In the same order, the values of UAAGAGCAAUAUUACGAUGG are -3.51 ± 0.21 and -1.68 ± 0.16.

As for CGUCAGCAAUAUUACGGGUC, the “self-splicing fitness (ln)” value (30 °C) was -4.23 ± 0.39 and the “self-splicing fitness (ln)” value (37 °C) was -2.73 ± 0.23. Taken in the same sequence, the figures for AUCAAGCAAUAUUACGACAG were -3.07 ± 0.17 and -1.7 ± 0.18. Taken in the same sequence, the figures for AUAUAGCAAUAUUACGCAAG were -2.34 ± 0.22 and -0.955 ± 0.21. On to GUAUAGCAAUAUUACGCAUU, for which the “self-splicing fitness (ln)” value by setting is: (30 °C) -2 ± 0.17; (37 °C) -2.28 ± 0.29. Taken in the same sequence, the figures for UUUUAGCAAUAUUACGGGUG were -1.65 ± 0.11 and -0.739 ± 0.14. For CAUAAGCAAUAUUACGAUCU, the “self-splicing fitness (ln)” value reads like this: (30 °C) -2.67 ± 0.23; (37 °C) -1.85 ± 0.24. In the same order, the values of GCCUAGCAAUAUUACGGAGU are -0.965 ± 0.085 and -0.198 ± 0.094.

Take CUCAAGCAAUAUUACGAUAC: the “self-splicing fitness (ln)” value (30 °C) is -1.63 ± 0.18. For GGGUAGCAAUAUUACGACGG, for the setting “37 °C”, the “self-splicing fitness (ln)” value is -1.18 ± 0.44. In the case of GCUCAGCAAUAUUACGUGAG, the “self-splicing fitness (ln)” value is, setting by setting: (30 °C) -4.29 ± 0.25; (37 °C) -3.23 ± 0.2. Regarding GCUUAGCAAUAUUACGCAAU, the “self-splicing fitness (ln)” value is -0.651 ± 0.14 (30 °C) and -1.35 ± 0.13 (37 °C). As for AUAAAGCAAUAUUACGGUUU, the “self-splicing fitness (ln)” value (30 °C) was -0.835 ± 0.072 and the “self-splicing fitness (ln)” value (37 °C) was -0.0425 ± 0.098. In the same order, the values of GAUCAGCAAUAUUACGUAGA are -0.569 ± 0.08 and -0.158 ± 0.14. Consider UAAGAGCAAUAUUACGUAUU, for which the “self-splicing fitness (ln)” value is -4.58 ± 0.34 (30 °C) and -2.02 ± 0.2 (37 °C). As for GCACAGCAAUAUUACGCUAU, the “self-splicing fitness (ln)” value is -1.98 ± 0.08 (30 °C) and -0.752 ± 0.086 (37 °C).

Regarding CCCCAGCAAUAUUACGUGCG, the “self-splicing fitness (ln)” value is, setting by setting: (30 °C) -3.1 ± 0.099; (37 °C) -2.58 ± 0.14. Taken in the same sequence, the figures for CGUAAGCAAUAUUACGACGA were -1.28 ± 0.21 and -1.69 ± 0.24. In the same order, the values of CGUAAGCAAUAUUACGCUUG are -3.54 ± 0.18 and -0.367 ± 0.14. In the same order, the values of UUAUAGCAAUAUUACGACGA are -0.378 ± 0.098 and 0.212 ± 0.1.

Turning to GACGAGCAAUAUUACGGAAC, the “self-splicing fitness (ln)” value by setting is: (30 °C) -1.3 ± 0.19; (37 °C) -2.43 ± 0.35.

Regarding CGACAGCAAUAUUACGCGAC, the “self-splicing fitness (ln)” value (37 °C) was -2.98 ± 0.26. Regarding UCCUAGCAAUAUUACGUUAG, the “self-splicing fitness (ln)” value is -3.49 ± 0.2 (30 °C) and -1.92 ± 0.23 (37 °C). In the same order, the values of CUCAAGCAAUAUUACGUGGU are -3.18 ± 0.12 and -2.09 ± 0.12.

With GUAUAGCAAUAUUACGCUGG, the “self-splicing fitness (ln)” value (30 °C) is -2.35 ± 0.17 and the “self-splicing fitness (ln)” value (37 °C) is -1.01 ± 0.18. GUCGAGCAAUAUUACGAAUA: the “self-splicing fitness (ln)” value was -2.42 ± 0.36 (30 °C) and -2.1 ± 0.34 (37 °C).

As for GCUUAGCAAUAUUACGGAAG, the “self-splicing fitness (ln)” value is -2.07 ± 0.14 (30 °C) and -1.68 ± 0.14 (37 °C). In the case of GCCGAGCAAUAUUACGGUAA, the “self-splicing fitness (ln)” value is -0.184 ± 0.11 (30 °C) and -0.414 ± 0.091 (37 °C).

Regarding AGGCAGCAAUAUUACGUCUA, the “self-splicing fitness (ln)” value was -0.469 ± 0.081 (30 °C) and 0.262 ± 0.091 (37 °C). For GAAUAGCAAUAUUACGAUCC, the “self-splicing fitness (ln)” value reads like this: (30 °C) -1.16 ± 0.14; (37 °C) -0.622 ± 0.15. For GUGUAGCAAUAUUACGAAGA, under “37 °C”, the “self-splicing fitness (ln)” value was -1.38 ± 0.39.

For the sequence CAUCAGCAAUAUUACGAUGA, the “self-splicing fitness (ln)” value is -2.62 ± 0.24 (30 °C) and -0.687 ± 0.15 (37 °C). Turning to AUUAAGCAAUAUUACGAUUC, the “self-splicing fitness (ln)” value (30 °C) was -1.89 ± 0.1 and the “self-splicing fitness (ln)” value (37 °C) was -0.797 ± 0.12.

For CUCAAGCAAUAUUACGAGAC, the “self-splicing fitness (ln)” value was -3.27 ± 0.21 (30 °C) and -2.35 ± 0.23 (37 °C). Consider GACAAGCAAUAUUACGGCGU, for which the “self-splicing fitness (ln)” value was -0.596 ± 0.063 (30 °C) and -0.154 ± 0.08 (37 °C). Taken in the same sequence, the figures for ACAAAGCAAUAUUACGGUAG were -3.48 ± 0.16 and -3.21 ± 0.24. In the same order, the values of GCCGAGCAAUAUUACGGCCC are -2.4 ± 0.19 and -1.93 ± 0.24. As to UGUCAGCAAUAUUACGUGUA, the “self-splicing fitness (ln)” value by setting is: (30 °C) -0.648 ± 0.056; (37 °C) 0.127 ± 0.074. As to UGAUAGCAAUAUUACGGCAA, the “self-splicing fitness (ln)” value runs as follows: (30 °C) -1.36 ± 0.15; (37 °C) -0.418 ± 0.15.

As to CCACAGCAAUAUUACGAUGG, the “self-splicing fitness (ln)” value (30 °C) was -4.02 ± 0.14 and the “self-splicing fitness (ln)” value (37 °C) was -2.5 ± 0.13.

Take AAGCAGCAAUAUUACGGUUG: the “self-splicing fitness (ln)” value runs as follows: (30 °C) -3.08 ± 0.14; (37 °C) -2.01 ± 0.15.

On to UUAUAGCAAUAUUACGCUAU, for which the “self-splicing fitness (ln)” value (30 °C) is -3.51 ± 0.44 and the “self-splicing fitness (ln)” value (37 °C) was -4.04 ± 0.46.

CCGUAGCAAUAUUACGUAGA: the “self-splicing fitness (ln)” value by setting is: (30 °C) -3.28 ± 0.22; (37 °C) -1.41 ± 0.13. As for GAAGAGCAAUAUUACGUCGC, the “self-splicing fitness (ln)” value is -2.58 ± 0.28 (30 °C) and 0.595 ± 0.21 (37 °C).

On to CACUAGCAAUAUUACGGGGA, for which the “self-splicing fitness (ln)” value runs as follows: (30 °C) -2.57 ± 0.19; (37 °C) -1.63 ± 0.17. Consider GGCAAGCAAUAUUACGGUCA, for which the “self-splicing fitness (ln)” value reads like this: (30 °C) -0.571 ± 0.09; (37 °C) 0.329 ± 0.096. With AGGCAGCAAUAUUACGCGCU, the “self-splicing fitness (ln)” value (30 °C) was -3.04 ± 0.15 and the “self-splicing fitness (ln)” value (37 °C) is -1.03 ± 0.1.

Turning to UACUAGCAAUAUUACGAACC, the “self-splicing fitness (ln)” value (37 °C) was -2.16 ± 0.22. As to AUUCAGCAAUAUUACGUAGA, the “self-splicing fitness (ln)” value was -1.35 ± 0.066 (30 °C) and -0.424 ± 0.094 (37 °C). In the same order, the values of UGGAAGCAAUAUUACGUAAU are -3.03 ± 0.18 and -0.953 ± 0.16. Regarding UCCUAGCAAUAUUACGCCGG, the “self-splicing fitness (ln)” value (37 °C) is -1.88 ± 0.3. As for UUCGAGCAAUAUUACGGCGA, the “self-splicing fitness (ln)” value (30 °C) is -2.23 ± 0.17 and the “self-splicing fitness (ln)” value (37 °C) is -0.638 ± 0.18. In the same order, the values of UAGAAGCAAUAUUACGUACA are -0.549 ± 0.14 and 0.208 ± 0.16. For AGGAAGCAAUAUUACGCCAG, the “self-splicing fitness (ln)” value runs as follows: (30 °C) -2.89 ± 0.18; (37 °C) -1.81 ± 0.22. On to CUUGAGCAAUAUUACGUUAU, for which the “self-splicing fitness (ln)” value was -3.45 ± 0.27 (30 °C) and -2.77 ± 0.36 (37 °C). As for CAUGAGCAAUAUUACGUAUG, the “self-splicing fitness (ln)” value is -2.65 ± 0.21 (30 °C) and -2.65 ± 0.22 (37 °C). In the same order, the values of UUAAAGCAAUAUUACGAUAU are -1.05 ± 0.11 and -0.358 ± 0.13. Turning to ACCAAGCAAUAUUACGGACG, the “self-splicing fitness (ln)” value reads like this: (30 °C) -1.09 ± 0.069; (37 °C) -0.0232 ± 0.083. Regarding AGGUAGCAAUAUUACGCACG, the “self-splicing fitness (ln)” value runs as follows: (30 °C) -0.782 ± 0.016; (37 °C) -0.31 ± 0.035. Taken in the same sequence, the figures for CACCAGCAAUAUUACGCUGC were -4.19 ± 0.22 and -2 ± 0.16.

On to GGGGAGCAAUAUUACGCAGG, for which the “self-splicing fitness (ln)” value (37 °C) is -2.08 ± 0.46. As for GUGCAGCAAUAUUACGAAGG, the “self-splicing fitness (ln)” value was -2.59 ± 0.19 (30 °C) and -1.53 ± 0.23 (37 °C).

For UCCCAGCAAUAUUACGGAUU, the “self-splicing fitness (ln)” value (30 °C) is -2.66 ± 0.092 and the “self-splicing fitness (ln)” value (37 °C) is -0.582 ± 0.08. In the same order, the values of GAAAAGCAAUAUUACGUGAC are -4.06 ± 0.34 and -1.17 ± 0.17. Taken in the same sequence, the figures for UACGAGCAAUAUUACGAGUA were -2.84 ± 0.15 and -2.52 ± 0.15. In the same order, the values of UACAAGCAAUAUUACGGCGG are -0.215 ± 0.065 and 0.218 ± 0.084. For the sequence UGGCAGCAAUAUUACGAAAU, the “self-splicing fitness (ln)” value was -3.14 ± 0.29 (30 °C) and -0.617 ± 0.19 (37 °C). Regarding AAAUAGCAAUAUUACGAAAA, the “self-splicing fitness (ln)” value (30 °C) was -2.66 ± 0.35 and the “self-splicing fitness (ln)” value (37 °C) was -1.47 ± 0.22. As for AGGCAGCAAUAUUACGAUAG, the “self-splicing fitness (ln)” value by setting is: (30 °C) -3.08 ± 0.34; (37 °C) -2.15 ± 0.36. Taken in the same sequence, the figures for GCUCAGCAAUAUUACGCCGA were -2.43 ± 0.26 and -1.39 ± 0.34. In the same order, the values of GGUCAGCAAUAUUACGCUAU are -1.32 ± 0.092 and -1.03 ± 0.096. Taken in the same sequence, the figures for UCUUAGCAAUAUUACGGUGC were -3.26 ± 0.33 and -1.9 ± 0.33.

ACGAAGCAAUAUUACGAGGU: the “self-splicing fitness (ln)” value runs as follows: (30 °C) -3.96 ± 0.22; (37 °C) -3.57 ± 0.22.

For UGCCAGCAAUAUUACGGACC, the “self-splicing fitness (ln)” value runs as follows: (30 °C) -0.869 ± 0.2; (37 °C) 0.326 ± 0.23.
